Results on six variants are retold here after IntAct's records for PubMed 18647389.

Sequences and labels used below:
B1: RalBP1-associated Eps domain-containing protein 2 (Homo sapiens), Q8NFH8 (parent)
chain: MEAAAAAAAAAAAAAAAGGGCGSGPPPLLLSEGEQQCYSELFARCAGAAGGGPGSGPPEAARVAPGTATAAAGPVADLFRASQLPAETLHQITELCGAKRVGYFGPTQFYIALKLIAAAQSGLPVRIESIKCELPLPRFMMSKNDGEIRFGNPAELHGTKVQIPYLTTEKNSFKRMDDEDKQQETQSPTMSPLASPPSSPPHYQRVPLSHGYSKLRSSAEQMHPAPYEARQPLVQPEGSSSGGPGTKPLRHQASLIRSFSVERELQDNSSYPDEPWRITEEQREYYVNQFRSLQPDPSSFISGSVAKNFFTKSKLSIPELSYIWELSDADCDGALTLPEFCAAFHLIVARKNGYPLPEGLPPTLQPEYLQAAFPKPKWDCQLFDSYSESLPANQQPRDLNRMEKTSVKDMADLPVPNQDVTSDDKQALKSTINEALPKDVSEDPATPKDSNSLKARPRSRSYSSTSIEEAMKRGEDPPTPPPRPQKTHSRASSLDLNKVFQPSVPATKSGLLPPPPALPPRPCPSQSEQVSEAELLPQLSRAPSQAAESSPAKKDVLYSQPPSKPIRRKFRPENQATENQEPSTAASGPASAATMKPHPTVQKQSSKQKKAIQTAIRKNKEANAVLARLNSELQQQLKEVHQERIALENQLEQLRPVTVL
partner: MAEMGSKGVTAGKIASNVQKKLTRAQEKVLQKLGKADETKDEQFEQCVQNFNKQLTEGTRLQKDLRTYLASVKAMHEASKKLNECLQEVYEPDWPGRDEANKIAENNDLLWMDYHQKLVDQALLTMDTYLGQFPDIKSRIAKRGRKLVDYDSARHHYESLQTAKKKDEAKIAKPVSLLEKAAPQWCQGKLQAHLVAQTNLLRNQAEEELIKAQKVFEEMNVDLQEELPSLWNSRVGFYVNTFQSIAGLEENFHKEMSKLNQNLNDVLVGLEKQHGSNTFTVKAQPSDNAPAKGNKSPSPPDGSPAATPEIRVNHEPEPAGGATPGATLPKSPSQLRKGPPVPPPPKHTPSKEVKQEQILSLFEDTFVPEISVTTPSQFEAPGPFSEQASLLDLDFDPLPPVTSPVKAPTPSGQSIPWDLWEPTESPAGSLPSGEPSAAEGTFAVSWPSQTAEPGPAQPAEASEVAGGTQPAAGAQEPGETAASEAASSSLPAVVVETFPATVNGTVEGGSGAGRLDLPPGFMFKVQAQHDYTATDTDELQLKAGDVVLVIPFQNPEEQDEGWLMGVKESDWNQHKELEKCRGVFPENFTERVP
B2: RalBP1-associated Eps domain-containing protein 2 (Homo sapiens), Q8NFH8 (parent)
chain: B1 chain

One experiment covers variants of B1. As to conditions: with bin1_human BIN1, O00499.
Take R483A: the “effect of a mutation on the interaction” value is reported as “decreasing interaction”.

The variants in another experiment derive from B1. As to conditions: with bin1_human BIN1, O00499. This is another data set of the same source.
In the case of R483A, the “effect of a mutation on the interaction” value is given as “disrupting interaction strength”.

In another experiment the parent is B1. The conditions noted are these: with bin1_human BIN1, O00499. The source holds these as a separate data set.
In the case of P447A, the “effect of a mutation on the interaction” value is recorded as “disrupting interaction”.

In a further experiment the parent is B2. As to conditions: with grb2_human GRB2, P62993.
Chain of grb2_human GRB2, P62993 (P62993 whole entry, looked up): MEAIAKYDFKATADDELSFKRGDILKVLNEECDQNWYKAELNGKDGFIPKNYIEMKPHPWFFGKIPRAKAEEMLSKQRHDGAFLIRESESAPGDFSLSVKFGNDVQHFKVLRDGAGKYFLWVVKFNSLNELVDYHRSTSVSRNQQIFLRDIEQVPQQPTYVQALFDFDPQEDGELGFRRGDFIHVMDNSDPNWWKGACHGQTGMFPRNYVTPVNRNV
On to P480A, for which the “effect of a mutation on the interaction” value is “disrupting interaction”.

Variants of B2 are the subject of the next experiment. As to conditions: with 1433z_human YWHAZ.
On to S493A, for which the “effect of a mutation on the interaction” value was “disrupting interaction”.

Variants of B2 are the subject of the next experiment. As to conditions: with grb2_human GRB2, P62993. The source holds these as a separate data set.
Consider P484A, for which the “effect of a mutation on the interaction” value is “disrupting interaction”.

Variants of B2 are the subject of another experiment. The conditions noted are these: with grb2_human GRB2, P62993. The source holds these as a separate data set.
For R483A, the “effect of a mutation on the interaction” value was “disrupting interaction”.
